The text below walks through data of paper PMC7913688, “Human Rev1 relies on insert-2 to promote selective binding and accurate replication of stabilized G-quadruplex motifs”.

The target of series [1] is T1, hRev1 330-833 polymerase core (human, UniProt Q9UBZ9 330-833).
T1 sequence: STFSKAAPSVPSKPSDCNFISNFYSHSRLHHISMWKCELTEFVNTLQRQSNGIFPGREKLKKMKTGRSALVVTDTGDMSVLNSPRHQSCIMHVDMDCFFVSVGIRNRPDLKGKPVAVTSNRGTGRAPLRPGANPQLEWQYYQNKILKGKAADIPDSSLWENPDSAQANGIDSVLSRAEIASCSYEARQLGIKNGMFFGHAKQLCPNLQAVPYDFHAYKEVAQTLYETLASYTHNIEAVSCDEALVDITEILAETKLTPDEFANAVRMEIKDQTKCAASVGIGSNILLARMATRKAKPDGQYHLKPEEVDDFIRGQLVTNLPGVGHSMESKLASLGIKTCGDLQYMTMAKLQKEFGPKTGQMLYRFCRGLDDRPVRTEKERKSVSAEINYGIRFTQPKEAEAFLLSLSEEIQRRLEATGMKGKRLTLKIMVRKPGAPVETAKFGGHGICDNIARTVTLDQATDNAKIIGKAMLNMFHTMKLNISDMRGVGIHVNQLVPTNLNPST
Nature of the series: fluorescence polarization; 100 mM LiCl; Fluorescence polarization: 1 nM FAM-DNA, 100 mM KCl or LiCl; DNA annealed in 50 mM HEPES pH 7.5; full buffer as in cited ref 17, temperature not stated. Footprinting: 50 mM HEPES pH 7.5, 100 mM KCl, 10 uM protein, 30 uM ssDNA, room temperature. Conditions: protein: recombinant; label: 5'-FAM. In general terms: In fluorescence polarisation assays a small probe gives low polarisation when free and higher when bound to something large.

Series [2] concerns the target T2, hRev1 330-833 L358A (human, UniProt Q9UBZ9 330-833, L358A).
T2 sequence: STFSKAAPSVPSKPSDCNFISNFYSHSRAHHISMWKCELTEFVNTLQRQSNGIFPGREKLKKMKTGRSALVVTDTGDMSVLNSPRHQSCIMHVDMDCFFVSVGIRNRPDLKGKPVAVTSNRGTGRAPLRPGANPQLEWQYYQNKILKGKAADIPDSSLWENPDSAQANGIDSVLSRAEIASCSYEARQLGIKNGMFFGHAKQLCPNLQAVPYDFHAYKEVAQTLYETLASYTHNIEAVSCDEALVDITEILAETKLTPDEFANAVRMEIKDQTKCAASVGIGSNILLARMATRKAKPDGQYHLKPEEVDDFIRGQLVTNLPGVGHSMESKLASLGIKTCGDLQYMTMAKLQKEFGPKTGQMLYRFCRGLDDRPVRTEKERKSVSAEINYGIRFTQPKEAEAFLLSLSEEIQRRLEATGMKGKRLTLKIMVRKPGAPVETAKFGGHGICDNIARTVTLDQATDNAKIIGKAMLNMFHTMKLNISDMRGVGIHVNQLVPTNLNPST
Briefly: fluorescence polarization; 100 mM KCl?; Fluorescence polarization: 1 nM FAM-DNA, 100 mM KCl or LiCl; DNA annealed in 50 mM HEPES pH 7.5; full buffer as in cited ref 17, temperature not stated. Footprinting: 50 mM HEPES pH 7.5, 100 mM KCl, 10 uM protein, 30 uM ssDNA, room temperature. Particulars: protein: recombinant, label: 5'-FAM.

Series [3] addresses T3, hRev1 330-833 E466K (human, UniProt Q9UBZ9 330-833, E466K).
T3 sequence: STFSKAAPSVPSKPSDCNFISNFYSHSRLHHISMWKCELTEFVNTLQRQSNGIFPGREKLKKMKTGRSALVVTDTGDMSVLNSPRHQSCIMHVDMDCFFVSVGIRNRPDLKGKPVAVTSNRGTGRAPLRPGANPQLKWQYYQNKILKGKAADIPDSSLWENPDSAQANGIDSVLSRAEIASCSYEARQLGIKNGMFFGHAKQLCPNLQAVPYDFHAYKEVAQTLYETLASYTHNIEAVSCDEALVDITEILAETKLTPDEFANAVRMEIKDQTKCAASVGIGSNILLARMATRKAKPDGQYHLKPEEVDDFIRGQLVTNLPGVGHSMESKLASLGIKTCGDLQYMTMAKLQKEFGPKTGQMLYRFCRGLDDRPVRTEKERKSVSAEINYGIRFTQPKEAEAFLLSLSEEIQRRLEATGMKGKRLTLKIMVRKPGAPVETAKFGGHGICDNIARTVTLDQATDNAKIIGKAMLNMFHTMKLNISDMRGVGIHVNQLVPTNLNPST
Described as above. Particulars: protein: recombinant, label: 5'-FAM.

The target in series [4] is T4, hRev1 330-833 E466A (human, UniProt Q9UBZ9 330-833, E466A).
T4 sequence: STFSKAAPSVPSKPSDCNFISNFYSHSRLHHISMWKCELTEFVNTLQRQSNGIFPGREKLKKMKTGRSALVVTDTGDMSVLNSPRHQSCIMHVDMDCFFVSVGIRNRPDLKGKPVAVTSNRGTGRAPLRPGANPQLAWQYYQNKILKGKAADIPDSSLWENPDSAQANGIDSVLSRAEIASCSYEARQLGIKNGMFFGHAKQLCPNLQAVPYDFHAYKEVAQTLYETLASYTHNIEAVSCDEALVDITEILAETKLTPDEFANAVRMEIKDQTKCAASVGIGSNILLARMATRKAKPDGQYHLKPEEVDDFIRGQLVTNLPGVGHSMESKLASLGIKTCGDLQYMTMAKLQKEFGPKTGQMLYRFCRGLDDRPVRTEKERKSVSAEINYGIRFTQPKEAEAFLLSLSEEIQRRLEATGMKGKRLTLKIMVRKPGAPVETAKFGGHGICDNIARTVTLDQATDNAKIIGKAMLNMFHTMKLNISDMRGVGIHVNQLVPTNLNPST
Described as above. Particulars: protein: recombinant, label: 5'-FAM.

Where [5] appears, read: parallel G4 (1:2:1 loops) in K+.

For the molecule AGCGTGCGTAGCGTGCGTTATGAGATGAT (ssDNA) [Non-G4 Myc control ss], the dissociation constant Kd (as a rule, the free concentration of one partner at which half of the binding sites on the other are occupied at equilibrium, for simple one-to-one binding) in series [1] amounted to 760 ± 290 nM; in series [2], 660 ± 140 nM; in series [3], 1300 ± 300 nM; in series [4], 1100 ± 130 nM.

As for AGGGTGGGTAGGGTGGGTTATGAGATGAT (structured_DNA) [Myc 14/23 ss G4], the Kd in series [2] (setting [5]) was 77 ± 8 nM; in series [3] (setting [5]), 43 ± 16 nM; in series [4] (setting [5]), 280 ± 20 nM.
